Laboratory results published in patent publication US20120100074A1 (Teva, published 2012).

How the values were obtained:
[1] = target: T1, LIGHT (TNFSF14), recombinant soluble protein (human, UniProt O43557 83-240, limits assumed); test: BiaCore (SPR)
T1 construct: The immunogen was the extracellular domain fragment (Leu Ile Glu to Phe Met Val of AF036581); also called TL5; LIGHT/TL5

[2] = target: T1, LIGHT (TNFSF14), recombinant soluble …; test: direct binding ELISA on LIGHT
[3] = target: T2, LIGHT expressed on the cell surface (LIGHT transfected cells; activated T-cells) (UniProt O43557 1-240, limits assumed); test: flow cytometry on LIGHT transfected cells against vector control cells
T2 construct: whole, on cells
T2 sequence (O43557 whole entry): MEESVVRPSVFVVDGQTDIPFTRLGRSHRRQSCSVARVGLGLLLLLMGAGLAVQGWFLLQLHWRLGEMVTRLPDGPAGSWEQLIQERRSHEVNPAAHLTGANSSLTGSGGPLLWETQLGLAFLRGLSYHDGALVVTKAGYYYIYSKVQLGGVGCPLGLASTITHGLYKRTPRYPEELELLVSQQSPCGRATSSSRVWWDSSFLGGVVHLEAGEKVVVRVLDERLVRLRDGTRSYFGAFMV

[4] = target: T1, LIGHT (TNFSF14), recombinant soluble …; test: competition ELISA: inhibition of LIGHT-biotin binding to DcR3-Fc captured by Protein A
[5] = target: T1, LIGHT (TNFSF14), recombinant soluble …; test: competition ELISA: inhibition of LIGHT-biotin binding to HVEM-Fc captured by Protein A
[6] = target: T1, LIGHT (TNFSF14), recombinant soluble …; test: competition ELISA: inhibition of LIGHT-biotin binding to LTbR-Fc captured by Protein A
[7] = target: T2, LIGHT expressed on the cell surface …; test: flow cytometry on PMA/ionomycin activated Th1, Th17 and Th2 cells, biotin labeled antibody, streptavidin-PE
Method: FIG. 10B illustrates binding of humanized 5E10 antibody to Th1, Th17 and Th2 activated T-cells compared to controls. Polarized T-cells were activated with PMA/Ionomycin for 24 hr. Biotin labeled LIGHT antibody or control antibody was incubated with cells for 40 minutes at room temperature. After washing twice with PBS, the antibody binding to LIGHT expressed on activated T-cells was determined by flow cytometry using strepavidin conjugated to PE. Dotted lines on figure indicates humanized LIGHT antibody binding. Solid fill indicates control antibody binding.
This example describes an assay protocol to determine LIGHT antibody binding to LIGHT expressed on surface of activated T-cells by Flow cytometry. Polarized Th1, Th2 and Th17 cells were activated with 50 ng/mL PMA and 0.5 μg/mL lonomycin overnight at 37° C. One million activated T-cells were transferred to 5 mL FACS tubes and centrifuged at 1200 rpm for 5 minutes. The cellet pellet was resuspended in FACS staining buffer and incubated with anti-LIGHT or control antibodies at room temperature for 40 minutes. After washing twice with 2 mL PBS, the cells were incubated with PE-conjugated secondary reagents for 1 hour. The cells were washed 3 times with 2 mL PBS and resuspended in 0.5 mL PBS and analyzed by flow cytometry.

T1 sequence (O43557 83-240 limits assumed): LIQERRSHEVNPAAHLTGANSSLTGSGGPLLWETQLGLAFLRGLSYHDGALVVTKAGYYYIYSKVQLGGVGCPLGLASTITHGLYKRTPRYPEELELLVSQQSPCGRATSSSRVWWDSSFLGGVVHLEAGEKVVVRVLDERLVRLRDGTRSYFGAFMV

B1: murine anti-LIGHT monoclonal antibody 10D11 (antibody, V domains shown)
VH: EIQLQQSGPDLVKPGASVKVSCKASGYSFTDYYIYWVRQSHGKSLEWIGYIDPYNGGTKYNQKFKDTASLTVDKSSSTAFMHLNSLTSEDSAVYYCARTSGSSWFPYWGQGTLVTVSA
VL: DIVLTQSPATLSVTPGDSVSLSCRASQSISNNLHWYQQKSHESPRLLIKYTYQSISGIPSRFSGSGSGTDFTLTINSVETEDFGMYFCQQSNRWPLTFGAGTKLELKR
notes: Mouse hybridoma monoclonal antibody; also called m10D11; mD10D11
- Kd [1]: 0.045 nM
- EC50 [2]: 0.16 nM
- MFC ratio (mean fluorescence on LIGHT transfected cells to vector control cells) [3]: 13.1 ratio
- IC50 [4]: 0.14 nM
- IC50 [5]: 0.08 nM
- IC50 [6]: 0.0012 nM

B2: humanized 5E10 antibody (antibody, V domains shown)
VH: QVQLVQSGAEVKKPGASVKVSCKASGYTFTSYYIHWVRQAPGQRLEWMGWIFPGSDITKYNEKFKGRVTITRDTSASTAYMELSSLRSEDTAVYYCAREDYGISTYSAMDFWGQGTLVTVSS
VL: DIQLTQSPSFLSASVGDRVTITCKASQDVGTAVAWYQQKPGKAPKLLIYWASTRHTGVPSRFSGSGSGTEFTLTISSLQPEDFATYYCQQYSSYPLTFGQGTKVEIKR
notes: also called h5E10
- binding result [7]: binds
